Ends that are not written are not given here.
Legend:
hPSCs [1] = test: HOX and NC gene expression (qRT-PCR) during neural crest differentiation of hPSCs; assay type: cell-based, human; conditions: for expression of HOX regulatory genes (CDX1, CDX2, CDX4): combined treatment with CHIR99021 and FGF2; for expression of posterior genes HoxB7, HoxC9, HoxA10 and CDX4: different concentrations of FGF2 and CHIR99021 together
Description: NC differentiation. The basic NC differentiation protocols used are based on previous works (Fattahi et al., Nature 531, 105-109, 2016; Tchieu et al., Cell Stem Cell 21, 399-410 e397, 2017). Briefly, matrigel (Thermo Fisher, A1413201) was diluted at 1:100 ratio in DMEMF-12 (Thermo Fisher, 21331020) and plates were coated with the diluted matrigel overnight at 4° C. For inducing differentiation, hESCs or iPSCs were dissociated at 70%-80% confluence using EDTA dissociation buffer and replated as a single cell suspension on matrigel-coated 24-well plates at a density of 100K cells/cm^2 in E6 medium containing 10 μM ROCK-inhibitor (Y-27632; R&D, 1254). The cells were kept in E6 medium (Thermo Fisher, A1516401)+Y-27632 overnight. The next day, the medium was switched to NC induction medium. For cranial differentiation, the cells were kept in E6 medium containing 10 μM SB431542 (R&D, 1614), […] (R&D, 314-BP), and 0.6 μM CHIR (R&D, 4423) for the first 2 days and then switched to E6 medium containing 10 μM SB431542 and 1.5 μM CHIR for 10 days. For vagal NC the same conditions were used with an additional 1 μM RA (Sigma, R2625) added to the medium starting from D6. To establish the sacral NC protocol, the cranial NC protocol was modified with varying concentrations of FGF2 (R&D, 233-FB/CF), CHIR and GDF11 (Peprotech, 120-11), added at different time points as detailed in the results section. For the generation of melanocytes, 100 nM EDN3 (American Peptide company, 88-5-10B) was added to the sacral NC protocol from day 14 to day 20. In experiments testing the RA hypothesis, the sacral NC protocol was modified using either 1 μM RA (Sigma, R2625) or 100 nM AGN (Tocris, 5758) as detailed in the experimental design section.
RNA extraction and RT-qPCR. RNA was prepared from samples collected with the Zymo Direct-zol Kit and extracted using the Direct-zol RNA MiniPrep kit. cDNA was generated using the iScript Reverse Transcription Supermix for RT-qPCR. For qPCR analysis, primers were obtained from QIAGEN or IDT and the reactions were performed following manufacturers' instructions using SsoFast EvaGreen® Supermix. The Assays were run on BioRad CFX384 Real-Time PCR machine. Results were normalized to GAPDH housekeeping genes.

rodent GSK3β homologs = conditions: against rodent GSK3β homologs; cited from earlier work
vagal NC = test: Migration (surface area) of NC cells in response to growth factors; assay type: cell-based, human; conditions: 0.1x, 1x, 10x of standard concentration (100 nM EDN3, 25 ng/ml GDNF)
Description: (§1) Fluorescence image of cells and their migration at different time points: 0 hour (upper panel), 24 hours (middle panel), 48 hours (bottom panel). Scale bars, 50 pm. […] Scale bars, 500 pm. […] N=6 biological replicates. FIGS. 32D and 32E show surface area VNC or SNC cells in response to different growth factors. 1 equates to standard concentration (100 nM and 25 ng/ml for EDN3 and GDN F respectively), 0.1 equates to 1/10 of standard concentration and 10 equates to 10 times higher than the standard concentration. Surface area is quantified by ImageJ. N=4 biological replicates. […] The images are taken at different time points after transplantation: 1 Hour (left panel), 2 weeks (middle panel), 4 weeks (right panel). […] Data are present as Mean±SEM; ns: not significant P>0.05; *P≤0.05; **P≤0.01; ***P≤0.001; ****P≤0.0001
(§2) Migration and co-differentiation assays. Transwell assay: to test capacity of NC cells for invasion, we used the CytoSelect 24-Well Cell Invasion Assay, Basement (Cell Biolabs). We plated 200K cells per chamber in neural spheroids medium and added 500 μL of neural spheroid medium containing 10% fetal bovine serum to the lower well of the invasion plate and incubated the plate for 48 h at 37° C. in 5% CO2 atmosphere. Cells that crossed through the invasion chamber were stained with the Cell Stain Solution provided with the kit (Cell Biolabs) and examined under the microscope. The stained cells were then lysed and measured by plate reader for quantification. Migration assay: vagal or sacral neural spheroids were generated as described in enteric neuron differentiation section. Those spheroids were plated down on a 2D PO/LM/FN coated plated for assessing surface migration or embedded in […]) Matrigel for assessing migration within a Matrigel pellet. Pictures were taken at sequential time points post plating to trace the migration process. Scratch assay: vagal or sacral NC cells were plated on PO/LM/FN coated 24 well plates at density of 100×10^3 cells per cm^2. After 24 h, the culture lawn is scratched manually using a pipette tip. Live images are taken at different time points after the scratch was made to trace the migration.

sacral NC = test: as above; assay type: cell-based, human
Description: as §1, §2

hPSCs [2] = test: RNA-seq and ATAC-seq of NC differentiation with or without GDF11; assay type: cell-based, human
Description: RNA sequencing (RNA-seq). Cells were disassociated with Accutase for 20 minutes at 37° C. The cells were collected into 15 mL falcon tubes and DMEMF-12 containing 2% FBS was added to neutralize the enzyme. The cells were spun down and washed with PBS twice. The cells were spun down again in 1.5 mL Eppendorf tube and resuspended in 500 μL TRIzol (ThermoFisher catalog #15596018) and stored at −80° C. When all data points were collected, the samples underwent RNA extraction and RNA-seq as performed by the IGO core at MSKCC. Briefly, phase separation in cells lysed in 1 mL TRIzol Reagent was induced with 200 μL chloroform and RNA was extracted from the aqueous phase using the miRNeasy Mini Kit (Qiagen catalog #217004) on the QIAcube Connect (Qiagen) according to the manufacturer's protocol with 350 μL input. Samples were eluted in 15 μL RNase-free water. After RiboGreen quantification and quality control by Agilent BioAnalyzer, 500 ng of total RNA with RIN values of 9.6-10 underwent polyA selection and TruSeq library preparation according to instructions provided by Illumina (TruSeq Stranded mRNA LT Kit, catalog #RS-122-2102), with 8 cycles of PCR. Samples were barcoded and run on a HiSeq 4000 in a PE100 run, using the HiSeq 3000/4000 SBS Kit (Illumina). An average of 53 million paired reads was generated per sample and the percent of mRNA bases averaged 85%.
RNA-seq bioinformatics. STAR aligner (Dobin et al., Bioinformatics 29, 15-21, 2013) was used to map reads to the human genome (GRCh37). The 2-pass mapping method (Engström et al., Nature methods 10, 1185-1191, 2013) was used, in which the reads are mapped twice. SAM files were processed and converted to BAM format using PICARD tools and then HTseq was used to compute the expression count matrix from the mapped reads. DESeq2 (Love et al., Genome Biology 15, 550, 2014) was used to normalize the raw counts (Median of Ratios method) and perform differential gene expression analysis. Data are presented on a gene-by-gene basis as normalized counts or after carrying out a variance-stabilizing transformation followed by PCA analysis.
ATAC sequencing (ATAC-seq). Cells were disassociated with Accutase for 20 minutes at 37° C. The cells were collected into 15 mL falcon tubes and DMEMF-12 containing 2% FBS was added to neutralize the enzyme. The cells were spun down and washed with PBS twice. The cells were spun again in a 1.5 mL Eppendorf tube and resuspended in 500 μL stem cell banker cell freezing buffer and stored at liquid nitrogen tank. When all data points were collected, the samples were sent to IGO core. ATAC-seq was performed by IGO core at MSKCC. Profiling of chromatin was performed by ATAC-Seq as described in Buenrostro et al., Nat Methods 10, 1213-1218, 2013. Briefly, 50,000 viably frozen neural crest cells were washed in cold PBS and lysed. The transposition reaction was carried out using TDEI Tagment DNA Enzyme (Illumina catalog #20034198) incubated at 37° C. for 30 minutes. The DNA was cleaned with the MinElute PCR Purification Kit (QIAGEN catalog #28004) and material was amplified for 5 cycles using NEBNext High-Fidelity 2×PCR Master Mix (New England Biolabs catalog #M0541L). After evaluation by real-time PCR, 7-10 additional PCR cycles were done. The final product was cleaned by aMPure XP beads (Beckman Coulter catalog #A63882) at a 1× ratio, and size selection was performed at a 0.5× ratio. […] An average of 42 million paired reads were generated per sample. […]

[3] = low to medium level of EDN3, GDNF
[4] = early exposure to GDF11 in combination with FGF2 and CHIR
[5] = RNA seq, day 3, following GDF11 treatment

Molecule: Cc1ccc(C2=CCC(C)(C)c3ccc(C#Cc4ccc(C(=O)O)cc4)cc32)cc1 [AGN, reference compound]
- HOXC9 expression (hPSCs [1]; RA 1 μM or AGN 100 nM added to NC protocol): increased
- sacral HOX gene expression (hPSCs [1]; RA inhibition in GDF11 treated cultures): minimal impact
- HOXC10 expression (hPSCs [1]; RA inhibition in trunk NC (BMP condition)): promoted

Molecule: Cc1c[nH]c(-c2cnc(NCCNc3ccc(C#N)cn3)nc2-c2ccc(Cl)cc2Cl)n1 [CHIR99021, 6-(2-(4-(2,4-dichlorophenyl)-5-(4-methyl-1H-imidazol-2-yl)pyrimidin-2-ylamino)ethylamino)nicotinonitrile, reference compound]
- expression of HOX regulatory genes (CDX1, CDX2, CDX4) (hPSCs [1]): induced expression
- expression of posterior genes HoxB7, HoxC9, HoxA10 and CDX4 (hPSCs [1]): induced the expression
- IC50 values (rodent GSK3β homologs): nanomolar

Molecule: EDN3: growth factor EDN3 (American Peptide company, 88-5-10B) (CTCFTYKDKECVYYCHLDIIW; ends and bridges not checked; cysteine pairing not given here; UniProt P14138 97-117, looked up)
- vagal NC migration (vagal NC): highly promoted
- sacral NC migration (sacral NC; high EDN3 concentration): suppressed
- sacral NC migration (sacral NC; [3]): promoted

Molecule: FGF2: activator of FGF signaling (R&D, 233-FB/CF)
- expression of HOX regulatory genes (CDX1, CDX2, CDX4) (hPSCs [1]): induced expression
- expression of posterior genes HoxB7, HoxC9, HoxA10 and CDX4 (hPSCs [1]): induced the expression

B1: GDNF: glial cell line derived neurotrophic factor (Peprotech, 450-10) (protein, UniProt P39905 78-211, looked up)
Glial cell line-derived …: SPDKQMAVLPRRERNRQAAAANPENSRGKGRRGQRGKNRGCVLTAIHLNVTDLGLGYETKEELIFRYCSGSCDAAETTYDKILKNLSRNRRLVSDKVGQACCRPIAFDDDLSFLDDNLVYHILRKHSAKRCGCI
- vagal NC migration (vagal NC): barely affected
- sacral NC migration (sacral NC; [3]): promoted

B2: GDF11: growth differentiation factor 11 or bone morphogenetic protein 11, a TGFβ family protein encoded by the GDF11 gene (protein, UniProt O95390 299-407, looked up)
Growth/differentiation factor …: NLGLDCDEHSSESRCCRYPLTVDFEAFGWDWIIAPKRYKANYCSGQCEYMFMQKYPHTHLVQQANPRGSAGPCCTPTKMSPINMLYFNDKQQIIYGKIPGMVVDRCGCS
- transition from TNCs to SNCs (hPSCs [1]): promoted the transition
- expression of posterior Hox genes by time of addition (hPSCs [1]; GDF11 added from day 0 to day 3 versus later time points): higher expression
- expression of stem cell-related factors SOX2 and MYC (hPSCs [1]; GDF11 treated cultures): increased expression
- expression of the more anterior HOX genes (HOX4-9) (hPSCs [1]; [4]): without affecting
- sacral HOX gene expression (HOX10-13) (hPSCs [1]; [4]): dramatic and selective increase
- levels of H3K4 methyltransferases such as SMYD2 (hPSCs [2]; [5]): decreased levels
- levels of H3K27Me3 demethylases JMJD6 and KDM6B (hPSCs [2]; [5]): increased levels
- gene expression of GRHL1, GRHL2 and GRHL3 (hPSCs [2]; following GDF11 exposure): significant decrease
- chromatin accessibility of GRHL factors (hPSCs [2]; following GDF11 exposure, ATAC-seq): significant decrease
- expression of RA signaling genes CRABP2, CYP26A1 and RBP4 (hPSCs [2]; following GDF11 treatment): reduced

Reference: patent US20240279601A1, “METHODS OF GENERATING SACRAL NEURAL CREST LINEAGES AND USES THEREOF” (MEMORIAL SLOAN-KETTERING CANCER CENTER, priority 2021, published 2024)
